B1: hemextin AB complex (other)
chain 1: LKCKNKLVPFLSKTCPEGKNLCYKMTMLKMPKIPIKRGCTDACPKSSLLVKVVCCNKDKCN
chain 2: LKCKNKVVPFLKCKNKVVPFLCYKMTLKKVPKIPIKRGCTDACPKSSLLVNVMCCKTDKCN
B2: hemextin A (other)
chain: B1 chain 1
notes: also called peak A

Tests used:
[1] = target: plasma kallikrein; experiment: cell-based or functional assay
[2] = target: TF-FVIIa complex (human, UniProt P08709 61-466; P13726 33-295); experiment: cell-based or functional assay
[3] = target: T1, hemextin B (Hemachatus haemachatus (African …)); experiment: ITC in phosphate, MOPS and Tris buffers at pH 7.4
T1 construct: also called peak B
T1 chain: B1 chain 2

TF-FVIIa complex, sequence (P08709 61-466 limits assumed, chain 1 of 2): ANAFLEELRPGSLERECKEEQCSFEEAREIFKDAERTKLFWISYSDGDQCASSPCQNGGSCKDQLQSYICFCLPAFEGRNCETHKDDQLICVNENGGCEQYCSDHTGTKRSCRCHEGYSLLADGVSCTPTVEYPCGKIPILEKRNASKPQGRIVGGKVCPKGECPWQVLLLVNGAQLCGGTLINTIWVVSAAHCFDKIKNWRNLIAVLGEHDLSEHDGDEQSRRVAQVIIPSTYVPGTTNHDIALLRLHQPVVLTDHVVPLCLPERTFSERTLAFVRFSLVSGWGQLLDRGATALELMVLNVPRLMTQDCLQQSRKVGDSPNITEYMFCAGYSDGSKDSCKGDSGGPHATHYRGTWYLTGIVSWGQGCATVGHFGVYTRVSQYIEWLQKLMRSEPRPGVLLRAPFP
TF-FVIIa complex, sequence (P13726 33-295 limits assumed, chain 2 of 2): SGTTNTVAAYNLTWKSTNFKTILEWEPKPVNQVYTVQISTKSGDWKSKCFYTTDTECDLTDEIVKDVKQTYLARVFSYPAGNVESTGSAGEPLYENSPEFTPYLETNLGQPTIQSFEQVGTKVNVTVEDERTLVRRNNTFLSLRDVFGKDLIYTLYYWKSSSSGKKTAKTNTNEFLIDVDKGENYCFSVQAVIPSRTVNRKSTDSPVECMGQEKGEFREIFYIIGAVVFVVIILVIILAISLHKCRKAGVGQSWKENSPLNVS

Binder | IC50, inhibition of plasma kallikrein amidolytic activity [1] [nM] | IC50, inhibition of extrinsic tenase activity (FXa formation) [2] [nM] | ΔHbin (binding enthalpy corrected for protonation) [3] [kcal/mol]
B1 | ~5000 | 100 | –
B2 | – | – | -3.64

Reference: US20090180995A1 (NATIONAL UNIVERSITY OF SINGAPORE, published 2009)
